T1: ZEBOV GP (Zaire ebolavirus, UniProt Q05320 33-650)
T1 sequence: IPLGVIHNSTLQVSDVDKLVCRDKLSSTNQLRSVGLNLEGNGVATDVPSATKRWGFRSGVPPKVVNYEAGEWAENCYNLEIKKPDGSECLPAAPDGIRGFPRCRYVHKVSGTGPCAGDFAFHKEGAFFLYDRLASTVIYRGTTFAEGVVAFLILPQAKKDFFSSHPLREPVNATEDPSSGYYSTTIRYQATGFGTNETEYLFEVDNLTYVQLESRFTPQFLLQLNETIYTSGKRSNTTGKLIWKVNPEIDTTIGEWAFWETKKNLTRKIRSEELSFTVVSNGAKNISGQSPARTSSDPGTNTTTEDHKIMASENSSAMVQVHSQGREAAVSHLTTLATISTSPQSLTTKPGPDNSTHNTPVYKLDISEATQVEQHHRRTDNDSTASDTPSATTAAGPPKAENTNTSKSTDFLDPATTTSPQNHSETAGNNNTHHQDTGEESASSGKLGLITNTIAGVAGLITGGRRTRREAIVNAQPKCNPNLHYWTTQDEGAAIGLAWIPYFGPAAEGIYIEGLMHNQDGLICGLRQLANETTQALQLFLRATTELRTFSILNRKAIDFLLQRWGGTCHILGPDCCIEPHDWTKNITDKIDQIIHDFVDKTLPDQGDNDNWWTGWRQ

B1: CAN9G1 monoclonal antibody (antibody, V domains shown)
VH: ERQLVESGGGVVKPGESLKLSCAASGFAFSSYDMSWVRQTPEKRLEWVAYSSRGGGFTYYPDTVKGRFTIARDNAKNTLHLQMSSLKSEDTAMYYCATHYYGPLYAMDYWGQGTSVTVSS
VL: QLVLTQSSSASFSLGASAKLTCTLSSQHSTFTIEWYQQQPLKAPKYVMELKKDGSHSTGDGIPDRFSGSSSGADRYLWISNIQPEDEAMYICGVGDTIKEQFVYVFGGGTKVTVL

Key:
[1] = biological target: ZEBOV GP (Zaire ebolavirus) (UniProt Q05320); test: affinity for recombinant ZEBOV GP; method not described
ZEBOV GP = biological target: T1, ZEBOV GP; test: as above

Molecule | Kd [1] [nM] | Kd (ZEBOV GP) [nM]
USAMRIID mAb 13F6 (antibody) | 0.33 | –
B1 | – | 0.27

Source: patent US20170183396A1 (published 2017)
